According to the RNAGym collection of RNA variant scans (doi:10.1073/pnas.2313332121):
Variants at the floor of the assay were thinned out.

B1: TPR 5TU (parent)
chain: GGAUCUUCUCGAUCUAACAAAAAAGACAAAUCUGCCACAAAGCUUGAGAGCAUCUUCGGAUGCAGAGGCGGCAGCCUUCGGUGGCGCGAUAGCGCCAACGUUCUCAACUAUGACACGCAAAACGCGUGCUCCGUUGAAUGGAGUUUAUCAUG

Variants of: B1
Assay: polymerase ribozyme fitness, log enrichment relative to wild type (log ratio); higher = more active; in vitro selection for triplet polymerase activity
How it was run: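 Genotype fitness is the logarithm of its enrichment divided by wild-type enrichment, using inverse-variance-weighted averages of replicates. That logarithm is base 2. Enrichment was measured by Illumina sequencing of input and output libraries from one triplicate in vitro selection round, with frozen incubation at −7 °C, on PCR-built, transcribed mutant libraries of each subunit of a heterodimeric triplet polymerase ribozyme, retaining genotypes with ≥10 input reads and ≥1 read per output.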

First: C85U A89C C93U C149U
Second: C87G G92C C105U
The “polymerase ribozyme fitness (log ratio)” value of the first is lower: -3.26 for the first, 0.371 for the second.

First: G84U U101G G143U
Second: C87U C93U
The “polymerase ribozyme fitness (log ratio)” value of the first is lower: ≤ -4.2 for the first, -2.9 for the second.

Going from C87U C131U to C87U C116A G117C C118G, the “polymerase ribozyme fitness (log ratio)” value falls from 1.46 to -1.82.

Compared with C85G G92U A138U U145A, A89C A150C is higher in “polymerase ribozyme fitness (log ratio)” value: ≤ -4.2 for the first, -3.81 for the second.

Going from G86U A91C C99G U109G to C85G G141U U146A, the “polymerase ribozyme fitness (log ratio)” value rises from ≤ -4.2 to -0.46.

First: C85A C103A C149U
Second: C85G G136A
The “polymerase ribozyme fitness (log ratio)” value of the first is lower: -3.27 for the first, -1.31 for the second.

First: G84A C95A U104C
Second: C87A A119U A147C
The “polymerase ribozyme fitness (log ratio)” value of the first is higher: -0.367 for the first, -4.05 for the second.

Compared with A89C G92U, G86C U151G is lower in “polymerase ribozyme fitness (log ratio)” value: -1.92 for the first, ≤ -4.2 for the second.

G86U G133A and G88U C108G C118U A120U cannot be ordered by “polymerase ribozyme fitness (log ratio)” value: ≤ -4.2 for the first, ≤ -4.2 for the second.

C85G C87G A98U A137G U144C and G84U U148A cannot be ordered by “polymerase ribozyme fitness (log ratio)” value: ≤ -4.2 for the first, ≤ -4.2 for the second.

First: G88U C95G C125U
Second: C87A U101C
The “polymerase ribozyme fitness (log ratio)” value of the first is lower: ≤ -4.2 for the first, -4 for the second.

Compared with G83U A120C G141A, C87U U144G is lower in “polymerase ribozyme fitness (log ratio)” value: -0.169 for the first, -0.986 for the second.

Going from C87U U90C to G86U C123A, the “polymerase ribozyme fitness (log ratio)” value rises from -3.33 to -1.99.

Going from G86U C123G to G86U G124A U148A, the “polymerase ribozyme fitness (log ratio)” value falls from -1.55 to -3.78.

First: G86A G141A
Second: C85A G117C C118A A147U
The “polymerase ribozyme fitness (log ratio)” value of the first is lower: -0.545 for the first, -0.0649 for the second.

Going from C85G A107U to C87U C116U C118A, the “polymerase ribozyme fitness (log ratio)” value rises from ≤ -4.2 to -0.495.

Going from G86U A106C to C85G C116A, the “polymerase ribozyme fitness (log ratio)” value rises from -1.79 to -0.515.

First: G84A A119U
Second: C85G C129G
The “polymerase ribozyme fitness (log ratio)” value of the first is higher: -0.787 for the first, -4.11 for the second.

Compared with C85G C118G, C85U C149A is lower in “polymerase ribozyme fitness (log ratio)” value: -2.62 for the first, ≤ -4.2 for the second.

First: C85A A97U G152A
Second: C85U A89C
The “polymerase ribozyme fitness (log ratio)” value of the first is lower: ≤ -4.2 for the first, -1.13 for the second.

C85G G88A and C85U G92A G143U are within 0.2 log units of each other in “polymerase ribozyme fitness (log ratio)” value: -4.01 for the first, -4.16 for the second.

Compared with G83U C129A, C85G A115U A121G A142G U144G is lower in “polymerase ribozyme fitness (log ratio)” value: -4.02 for the first, ≤ -4.2 for the second.

C87U C118U U135G and G88U A97U U102G G117U U139G cannot be ordered by “polymerase ribozyme fitness (log ratio)” value: ≤ -4.2 for the first, ≤ -4.2 for the second.

Compared with C85A C116G, G88U is lower in “polymerase ribozyme fitness (log ratio)” value: -0.2 for the first, -3.89 for the second.

Going from G88A to G88C, the “polymerase ribozyme fitness (log ratio)” value falls from -3.75 to -4.19.

First: G84C G92U A150U
Second: G84U U144G
The “polymerase ribozyme fitness (log ratio)” value of the first is lower: -2.39 for the first, -0.698 for the second.

Going from G84U G124C G140U U146C to C85G G94A G117U G124U U135G, the “polymerase ribozyme fitness (log ratio)” value rises from ≤ -4.2 to -3.69.

Compared with C87A A97G A142C, G84A U102G A122U is higher in “polymerase ribozyme fitness (log ratio)” value: ≤ -4.2 for the first, -2.74 for the second.

Compared with G84A U90A A121U, C85A U130A is higher in “polymerase ribozyme fitness (log ratio)” value: ≤ -4.2 for the first, -2.45 for the second.

Compared with C85G C93A, C85U C93U U134G is higher in “polymerase ribozyme fitness (log ratio)” value: ≤ -4.2 for the first, -4.16 for the second.

Going from G88A C116U to G84A A113U G140A, the “polymerase ribozyme fitness (log ratio)” value falls from -4.05 to ≤ -4.2.

First: G86U G88A
Second: C85U C93U C131A
The “polymerase ribozyme fitness (log ratio)” value of the first is lower: ≤ -4.2 for the first, -2.94 for the second.

First: C85U C95A G136U A138C
Second: C85U C99G
The “polymerase ribozyme fitness (log ratio)” value of the first is lower: ≤ -4.2 for the first, -1.07 for the second.

Going from C85U C99U to G83U A122C G133C A147C, the “polymerase ribozyme fitness (log ratio)” value falls from -2.35 to -2.76.

C87U C129G and C85U C116G U145A are within 0.2 log units of each other in “polymerase ribozyme fitness (log ratio)” value: -2.63 for the first, -2.57 for the second.

Going from C85G U139A to G86A C105G A138U, the “polymerase ribozyme fitness (log ratio)” value falls from -4.19 to ≤ -4.2.

Compared with C87U A89C U139G, G86C C99U is lower in “polymerase ribozyme fitness (log ratio)” value: -2.56 for the first, -2.83 for the second.

Going from C85U G92U U139G to G84A U148G, the “polymerase ribozyme fitness (log ratio)” value falls from -1.29 to -3.25.

Going from G86U A147G to C87G C114G A137G, the “polymerase ribozyme fitness (log ratio)” value falls from -3.45 to ≤ -4.2.

Going from G86U G100A C131U to C85G U134A, the “polymerase ribozyme fitness (log ratio)” value rises from ≤ -4.2 to -3.86.

Going from C85U C95A U127G to G86U A115G, the “polymerase ribozyme fitness (log ratio)” value rises from -3.88 to -2.39.

First: C87U G136C
Second: G88U G126A
The “polymerase ribozyme fitness (log ratio)” value of the first is lower: -3.65 for the first, -2.98 for the second.
